The values below come from patent publication US20150191516A1 (ONCOTHERAPY SCIENCE, published 2015).

Assay [1] deals with T1, HLA-DR8 (DRB1*08:03) (human).
T1 construct: whole, on cells; MHC class II molecule on transfected L cells (L-DR8); also called L-DR8 (mouse L cells expressing it)
Briefly: concluded from IFN-gamma ELISPOT with peptide-pulsed L cells expressing single HLA class II molecules and blocking mAbs; no direct binding assay. How it is done:
(§1) The immune response of Th cells to APCs pulsed with peptides were assessed by IFN-gamma ELISPOT assays (Human IFN-gamma ELISPOT kit, BD Biosciences) as described previously (Tomita Y, et al. Cancer Sci; 102: 697-705.). Briefly, the frequency of peptide-specific CD4⁺ T cells producing IFN-gamma per 3×10⁴ bulk CD4⁺ T cells upon stimulation with peptide-pulsed PBMCs (3×10⁴ cells/well), or 1×10⁴ bulk CD4⁺ T cells upon stimulation with peptide-pulsed HLA-DR or DP-expressing L-cells (5×10⁴/well) was analyzed. To determine restriction HLA molecules involved in antigen presentation, blocking of antigen-induced IFN-gamma production was investigated by adding anti-HLA-DR mAb (L243, Biolegend), anti-HLA-DP mAb, (B7/21, abcam), anti-human HLA-DQ mAb (SPV-L3, abcam), or anti-HLA class I mAb, (W6/32, abcam). All mAbs were used at a final concentration of 5 micro-g/ml. Cells cultured with HIV-derived peptides were used as negative control. Cells cultured with PMA (100 ng/ml; Sigma-Aldrich) and ionomycin (500 ng/ml; Sigma-Aldrich) were used as positive controls. All assessments of IFN-gamma ELISPOT assays were carried out in duplicate or triplicate, and results corresponded to mean values.

Assay [2] deals with T2, HLA-DR15 (DRB1*15:02) (human).
T2 construct: whole, on cells; MHC class II molecule on transfected L cells (L-DR15); also called L-DR15 (mouse L cells expressing it)
The assay is described as above. The procedure: as §1

As to KWTEPYCVIAAVKIFPRFFMVAKQ (Synthetic 24-mer, purity >90%) [LY6K (119-142) long peptide], the binding result in assay [1] and in assay [2] was “binds” each time.
